Measurements as given in PMC8960973, “Pretransition state and apo structures of the filament-forming enzyme SgrAI elucidate mechanisms of activation and substrate specificity” (The Journal of Biological Chemistry, 2022).

Legend:
[1] = molecular target: T1, SgrAI restriction endonuclease (UniProt Q9F6L0 1-339); experiment: cryo-EM structure (2.7 A); Ca2+ (sites A and B), filamentous, intact scissile phosphate; EM sample buffer not given in the material; Ca2+ in place of Mg2+; SgrAI stored after SEC in 25 mM Tris-HCl pH 8, 150 mM NaCl, 1 mM DTT; conditions: protein: recombinant; chain copies: 2; blunt
T1 sequence: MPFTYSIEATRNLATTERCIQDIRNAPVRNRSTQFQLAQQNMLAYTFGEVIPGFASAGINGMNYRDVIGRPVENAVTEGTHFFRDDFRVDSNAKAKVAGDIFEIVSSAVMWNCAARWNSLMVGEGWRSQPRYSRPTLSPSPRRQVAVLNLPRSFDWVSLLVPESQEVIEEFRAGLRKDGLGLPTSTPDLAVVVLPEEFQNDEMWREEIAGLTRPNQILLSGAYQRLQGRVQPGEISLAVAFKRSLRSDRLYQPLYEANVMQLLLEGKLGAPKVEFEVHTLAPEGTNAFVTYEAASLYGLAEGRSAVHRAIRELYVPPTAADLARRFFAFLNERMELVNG

[2] = molecular target: the molecule itself; experiment: cryo-EM structure; run-on oligomeric filaments of SgrAI dimers bound to 40 bp primary site DNA (CACCGGTG, intact scissile phosphate); 4.9 uM SgrAI, 41 uM dsDNA, 10 mM Ca2+, room temperature 1 h; helical symmetry rise 21.2 A, twist -85.8 deg
[3] = molecular target: the molecule itself; experiment: crystal structure; DNA-free (apo) SgrAI with Ca2+; hanging drop, 5% PEG 4000, 0.1 M imidazole pH 6.5, 0.1 M NaCl, 5 mM Ca(OAc)2, 17 °C; two chains per asymmetric unit forming the dimer

B1: 40-1 (40 bp primary site DNA) (dsDNA)
DNA 1: GATGCGTGGGTCTTCACACCGGTGGATGCGTGGGTCTTCA
DNA 2: TGAAGACCCACGCATCCACCGGTGTGAAGACCCACGCATC
[1]
  binding result: binds

B2: SgrAI type II restriction endonuclease, wildtype (enzyme)
chain: MPFTYSIEATRNLATTERCIQDIRNAPVRNRSTQFQLAQQNMLAYTFGEVIPGFASAGINGMNYRDVIGRPVENAVTEGTHFFRDDFRVDSNAKAKVAGDIFEIVSSAVMWNCAARWNSLMVGEGWRSQPRYSRPTLSPSPRRQVAVLNLPRSFDWVSLLVPESQEVIEEFRAGLRKDGLGLPTSTPDLAVVVLPEEFQNDEMWREEIAGLTRPNQILLSGAYQRLQGRVQPGEISLAVAFKRSLRSDRLYQPLYEANVMQLLLEGKLGAPKVEFEVHTLAPEGTNAFVTYEAASLYGLAEGRSAVHRAIRELYVPPTAADLARRFFAFLNERMELVNG
notes: homodimer of 74 kDa; in the crystal it is DNA-free with Ca2+; also called SgrAI dimer; source: E. coli BL21 (DE3), purified (Talon resin, heparin FF, Superdex-200 SEC)
[2]
  stoichiometry N: < 10 DBDs (DNA-bound SgrAI dimers) per filament
[3]
  stoichiometry N: 2 chains per dimer
